From patent US8877192B2, “Rage fusion proteins and methods of use” (TransTech Pharma, LLC, priority 2004, dated 2014)

Experiments:
[1] = target: T1, amyloid-beta (Abeta) (Homo sapiens, UniProt P05067); assay: In vitro ligand binding (ELISA) to immobilized amyloid-beta; conditions: increasing dilutions of fusion protein; FIG. 7
T1 construct: Amyloid Beta (1-40) from Biosource; purchased Biosource
Method: (§1) For example, the RAGE fusion protein may be used in a binding assay to identify potential RAGE ligands. In one example embodiment of such a binding assay, a known RAGE ligand may coated onto a solid substrate (e.g., Maxisorb plates) at a concentration of about 5 micrograms per well, where each well contains a total volume of about 100 microliters (μL). The plates may be incubated at 4° C. overnight to allow the ligand to absorb. Alternatively, shorter incubation periods at higher temperature (e.g., room temperature) may be used. […] The fusion protein bound to the immobilized ligand may be detected in a variety of ways. […] The bound complex may be detected by adding the alkaline phosphatase substrate, para-nitrophenylphosphate (PNPP), and measuring conversion of PNPP to para-nitrophenol (PNP) as an increase in absorbance at 405 nm. […] Binding was detected by the addition of an immunodetection complex containing a monoclonal mouse anti-human IgG1 diluted 1:11,000 to a final assay concentration (FAC) of 21 ng/100 μL, a biotinylated goat anti-mouse IgG diluted 1:500, to a FAC of […], and an avidin-linked alkaline phosphatase. […] Binding of the complex to the immobilized fusion protein was quantified by measuring conversion of PNPP to para-nitrophenol (PNP) which was measured spectrophotometrically at 405 nm. […]

[2] = target: T2, S100b (S100) (Homo sapiens, UniProt P04271); assay: In vitro ligand binding (ELISA) to immobilized S100b; conditions: increasing dilutions of fusion protein; FIG. 7
T2 sequence (P04271 1-92): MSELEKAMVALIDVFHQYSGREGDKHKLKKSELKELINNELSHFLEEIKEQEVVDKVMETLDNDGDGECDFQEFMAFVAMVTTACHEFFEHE
Method: as §1

[3] = tested on: amyloid-beta (A-beta); assay: Competition of a RAGE ligand with immobilized amyloid-beta for binding to the fusion protein; conditions: TTP-4000 initial solution diluted 1:10 or 1:30; RAGE ligand FAC 10 μM
Method: The fusion protein of the present invention may also be used to identify compounds having the ability to bind to RAGE.
Known RAGE ligands were coated onto the surface of Maxisorb plates at a concentration of 5 micrograms per well. Plates were incubated at 4° C. overnight. Following ligand incubation, plates were aspirated and a blocking buffer of 1% BSA in 50 mM imidizole buffer (pH 7.2) was added to the plates for 1 hour at room temperature. The plates were then aspirated and/or washed with wash buffer (20 mM Imidizole, 150 mM NaCl, 0.05% Tween-20, 5 mM CaCl2 and 5 mM MgCl2, pH 7.2). […] The fusion protein was added at increasing dilutions of the initial sample. The RAGE fusion protein was allowed to incubate with the immobilized ligand at 37° C. for one hour after which the plate was washed and assayed for binding of the fusion protein. Binding was detected by the addition of an immunodetection complex containing a monoclonal mouse anti-human IgG1 diluted 1:11,000 to a final assay concentration (FAC) of 21 ng/100 μL, a biotinylated goat anti-mouse IgG diluted 1:500, to a FAC of […], and an avidin-linked alkaline phosphatase. […] Binding of the complex to the immobilized fusion protein was quantified by measuring conversion of PNPP to para-nitrophenol (PNP) which was measured spectrophotometrically at 405 nm. […]

[4] = tested on: Fc receptor; assay: Fc receptor activation: TNF-α secretion from THP-1 cells; format: cell-based; conditions: wells precoated with 10 ug/well heat aggregated protein, 24 hours, FIG. 12
Excerpt: Fc stimulation results in TNF-α secretion.

T1 sequence (P05067 672-711 limits assumed): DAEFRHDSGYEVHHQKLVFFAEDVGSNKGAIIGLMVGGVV

B1: TTP-4000: four domain RAGE fusion protein (SEQ ID NO: 32): human RAGE amino acids 1-251 linked to CH2 and CH3 domains of human IgG (protein)
chain: MAAGTAVGAWALVLSLWGAVVGAQNITARIGEPLVLKCKGAPKKPPQRLEWKLNTGRTEAWKVLSPQGGGPWDSVARVLPNGSLFLPAVGIQDEGIFRCQAMNRNGKETKSNYRVRVYQIPGKPEIVDSASELTAGVPNKVGTCVSEGSYPAGTLSWHLDGKPLVPNEKGVSVKEQTRRHPETGLFTLQSELMVTPARGGDPRPTFSCSFSPGLPRHRALRTAPIQPRVWEPVPLEEVQLVVEPEGGAVAPPSVFLFPPKPKDTLMISRTPEVTCVVVDVSHEDPEVKFNWYVDGVEVHNAKTKPREEQYNSTYRVVSVLTVLHQDWLNGKEYKCKVSNKALPAPIEKTISKAKGQPREPQVYTLPPSRDELTKNQVSLTCLVKGFYPSDIAVEWESNGQPENNYKTTPPVLDSDGSFFLYSKLTVDKSRWQQGNVFSCSVMHEALHNHYTQKSLSLSPGK
[1]
  binding to immobilized amyloid-beta (absorbance at 405 nm): specifically interact
[2]
  binding to immobilized S100b (absorbance at 405 nm): specifically interact
[3]
  block of binding of fusion protein to immobilized amyloid-beta by the RAGE ligand: completely inhibited
[4]
  TNF generated: less than 2 ng/well
